Our source for the Kd values is article PMC6715699.

One may read the Kd as the free concentration of one partner at which half of the binding sites on the other are occupied at equilibrium, for simple one-to-one binding. High values mean weaker binding, low ones tighter binding.

The target in data set [1] is T1, CSL (RBP-Jkappa) (UniProt Q06330 1-500). The data set is described as follows: MST; 200 nM labelled CSL; MST in standard MST buffer (composition and pH not given), premium-treated capillaries, Monolith NT.115; 20 min at room temperature stated for the protein mixes. The note with it: protein: commercial; tags: RED-NHS dye when labelled; blunt.
Data set [2] concerns the target T1, CSL (RBP-Jkappa). The data set is described as follows: MST; 50 nM labelled DNA; MST in standard MST buffer (composition and pH not given), premium-treated capillaries, Monolith NT.115; 20 min at room temperature stated for the protein mixes. As to conditions: protein: commercial; tags: RED-NHS dye when labelled; label: 647-NHS; blunt.
In data set [3] the target is T1, CSL (RBP-Jkappa). The data set is described as follows: MST; second independent experiment; 50 nM labelled DNA; MST in standard MST buffer (composition and pH not given), premium-treated capillaries, Monolith NT.115; 20 min at room temperature stated for the protein mixes. The note with it: protein: commercial; tags: RED-NHS dye when labelled; label: 647-NHS; blunt.

The target in another data set is T2, UPF1 (UniProt Q92900 1-352+364-1129, internal_change).
T2 sequence: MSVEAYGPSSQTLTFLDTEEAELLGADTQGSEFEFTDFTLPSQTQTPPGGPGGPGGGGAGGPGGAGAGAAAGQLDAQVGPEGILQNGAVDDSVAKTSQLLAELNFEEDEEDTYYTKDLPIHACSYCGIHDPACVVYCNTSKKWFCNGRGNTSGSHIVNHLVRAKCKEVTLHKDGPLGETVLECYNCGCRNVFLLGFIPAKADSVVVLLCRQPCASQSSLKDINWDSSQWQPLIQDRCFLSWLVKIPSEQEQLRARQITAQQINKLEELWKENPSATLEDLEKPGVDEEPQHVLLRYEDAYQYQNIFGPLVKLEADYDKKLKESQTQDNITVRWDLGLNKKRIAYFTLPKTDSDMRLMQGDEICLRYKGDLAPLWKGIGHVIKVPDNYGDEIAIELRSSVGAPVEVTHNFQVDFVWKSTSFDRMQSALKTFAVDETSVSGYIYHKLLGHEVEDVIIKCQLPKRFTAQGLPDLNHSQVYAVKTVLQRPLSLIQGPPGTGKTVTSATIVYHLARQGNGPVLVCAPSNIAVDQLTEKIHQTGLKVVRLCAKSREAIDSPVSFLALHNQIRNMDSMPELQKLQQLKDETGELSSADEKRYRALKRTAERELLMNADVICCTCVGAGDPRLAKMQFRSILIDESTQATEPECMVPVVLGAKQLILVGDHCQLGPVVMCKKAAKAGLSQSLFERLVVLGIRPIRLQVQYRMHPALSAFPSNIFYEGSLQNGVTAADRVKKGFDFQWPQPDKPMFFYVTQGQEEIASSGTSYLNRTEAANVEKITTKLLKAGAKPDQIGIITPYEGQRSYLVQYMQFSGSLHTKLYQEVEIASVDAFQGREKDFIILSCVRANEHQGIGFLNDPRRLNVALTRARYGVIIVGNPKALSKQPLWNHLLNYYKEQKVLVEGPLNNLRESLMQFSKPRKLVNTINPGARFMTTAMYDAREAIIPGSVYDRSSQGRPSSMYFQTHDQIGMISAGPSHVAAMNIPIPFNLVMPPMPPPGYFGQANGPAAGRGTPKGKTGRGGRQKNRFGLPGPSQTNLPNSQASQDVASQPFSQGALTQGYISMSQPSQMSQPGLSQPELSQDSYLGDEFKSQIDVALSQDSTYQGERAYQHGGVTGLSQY
Nature of the data set: MST; 50 nM labelled DNA; no binding specificity; MST in standard MST buffer (composition and pH not given), premium-treated capillaries, Monolith NT.115; 20 min at room temperature stated for the protein mixes. The note with it: protein: commercial; label: 647-NHS; blunt.

T1 sequence (Q06330 whole entry): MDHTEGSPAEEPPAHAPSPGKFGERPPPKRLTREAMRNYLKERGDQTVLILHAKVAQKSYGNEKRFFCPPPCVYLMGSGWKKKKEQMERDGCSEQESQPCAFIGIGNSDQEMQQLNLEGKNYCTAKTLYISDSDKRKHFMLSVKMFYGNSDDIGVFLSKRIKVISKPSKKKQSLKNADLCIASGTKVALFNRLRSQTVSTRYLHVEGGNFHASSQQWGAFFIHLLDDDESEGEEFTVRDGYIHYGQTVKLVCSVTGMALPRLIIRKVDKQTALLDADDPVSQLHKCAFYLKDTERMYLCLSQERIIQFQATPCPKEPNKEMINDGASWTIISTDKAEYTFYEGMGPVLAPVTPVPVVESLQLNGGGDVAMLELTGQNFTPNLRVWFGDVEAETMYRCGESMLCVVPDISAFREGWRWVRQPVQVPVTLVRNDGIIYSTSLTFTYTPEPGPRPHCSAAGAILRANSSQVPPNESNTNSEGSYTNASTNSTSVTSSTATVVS

B1: SCRAMBLED (dsDNA)
DNA 1: GCTACTCATACCTAGAACG
DNA 2: CGTTCTAGGTATGAGTAGC
For B1, the Kd with CSL (RBP-Jkappa) [1] was found to be 3380 ± 77.6 nM.

B2: CSL specific motif (dsDNA)
DNA 1: GTTACTGTGGGAAAGAAAG
DNA 2: CTTTCTTTCCCACAGTAAC
On to B2, for which the Kd with CSL (RBP-Jkappa) [1] is 121 ± 17.4 nM.

B3: TELO (TTAGGG)3 (dsDNA)
DNA 1: TTAGGGTTAGGGTTAGGG
DNA 2: CCCTAACCCTAACCCTAA
Consider B3, for which the Kd in the data set with CSL (RBP-Jkappa) [2] is 235 ± 23.9 nM; with CSL (RBP-Jkappa) [3], 232 ± 15.4 nM; with UPF1, 3520 ± 46.8 nM.
